# According to the nanobody polyreactivity screen of Harvey et al. (2022):
# Assay: yeast display, Sf9 membrane polyspecificity reagent, FACS + sequencing; frameworks hold sequencing errors
# Outline: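 Galactose induction of a Saccharomyces cerevisiae BJ5465 synthetic nanobody display library ran 36–48 hours. The cells were then stained for 1 hour at 4 °C with 10% biotinylated, detergent-solubilized Sf9 membrane reagent, pulled down on streptavidin microbeads and FACS-sorted into low and high (top ~1%) gates on expression and reagent-binding fluorescence. Labels for polyreactivity follow the gate of origin.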
row,Sequence,polyreactivity (PSR sort gate)
1,QDQLVESRGGLVQAGGSLRLSCAASGRTFYINAMGWYRQAPGKERELVAAISWGGGRTYYADSVKGRFTISRDNAKNTVYLQMNSLKPEDTAVYYCAAEVAYYKYDYWGQGTQVTVSS,high polyreactivity
2,QDQLVESRGGLVQAGGSLRLSCAASGSIFTVNAMGWYRQAPRKERELVASITWRSGSTYYPDSVKGRFTISRDNAKNSVYLQMNRLKPEDTAFYYCNADSDYPYYPGNFDYWGQGTQVTVSS,low polyreactivity
3,QDQLVESRGGLVQAGGSLRLSCAAYGRTFIPYAMGWNSQATGKERELVAAITVRGSSTYYADSVKGRFTISRDNAKNTVYFQMNSLKPEDTAIYYCATDRRYRAFYYWGQGTQVTVSS,high polyreactivity
4,QDQLVESRGGLVQAGGSLSISCAASGFTFRYYAMGWYRQAPGKERELVAGISWRGGSTNYADSVKGRFTISRDNAKNTVYFQMNSLNPDDSEVYSCNAVSYSFPILRVRPTWYDYWGQGTQVTVSS,high polyreactivity
5,QDQLVESVGGLNQAGGSLRLSCAASGIIFYPYTIGWYRQAPGKERELVAAIRQSGTSTYYADSVKGRFTISRDNAKNTVYLQMNSLKPEDTAVYYCNVEPYQPPGHDRSYAYDYWGQGTQVTVSS,low polyreactivity
6,QDQLVESVGGLVQAGCSLRLSSAASVSIFVIYAMGWYRQAPGNERELVAAISWNGGSTFYADSVKGRITISRDNAKNTVYLQMNSQKPEDTAVYYCNTVASYYRWKSYYYWGQGTQVTVSS,high polyreactivity
7,QDQLVESVGGLVQAGGSLPLSSAASGLTFKRNAMRWYSQAPGKERELVAAIRYSTDSTNYADSVKGRFTISRDNAKNTVYCQMNSLKPESTAVYYCAKDKQDYEYWGQGTQVTVSS,low polyreactivity
8,QDQLVESVGGLVQAGGSLRLSCAASAITFGNYAMGWYRQAPGKERELVAGISWSGSSTYYADSVKGRFTISRDNSKNTVYLQMNSLKPEDTAVYYCNAVQPARFVGGFGTGVDYWGQGTQVTVSS,high polyreactivity
9,QDQLVESVGGLVQAGGSLRLSCAASGLTISQNAMGWYRQAPGKERELVAAITRSGSTTHYADSVKWRFTISRDNAKNTVYLQMNSLKPEDTAVYYCAAAHSYYGHYYYWGQGTQVTVSS,high polyreactivity
10,QDQLVESVGGLVQAGGSLRLSCAASGRIFWVNAMGWSRQAPGKERELVAAISWTSGSTYYADSVKGRFTISRDNAKNTVYLQMNSLKPEDTAVYYCNKVQSGEYDYWGQGTQVTVSS,high polyreactivity
11,QDQLVESVGGLVQAGGSLRLSCAASGSTIVRNAMGWYRQPPGKERELVAAISVDSGSTYYADSVKGRFTISRDNAKNTVYLQMNSLKPEDTAVYYCAADGTRGQEYDYWGQGTLVTVSS,low polyreactivity
12,QDQLVESVGGLVQAGGSLRLSCAASVRIFYWNAIGWYRQATGKESELVATITRGDRTYYADSVKGRFTISRDNAKNTVYLQMNSLKPEDTAVYYCARSSNPYFYGMYYWGQGTQVTVSS,high polyreactivity
13,QDQLVESVGGLVQAGVSLPLSCAASGIIFLYNDMGWFRQARGKAREFVATLSRSGGSTYYADSVKGRVTISRDNAKNTVYLQMNRLKPEETAVYYCAADEDSGYGYWGQGTQVTVTS,low polyreactivity
14,QDQLVESWGALVQAGGRLRLICAASGTIFSRNTMRSYRQAPGKDRELVAGISSSGSRTYYADSVKGRFTISRDNAKNTVYLQMNSLKPEDNAVYYCAAEHQRSRGRRYYIGYDYWGQGTQVTVSS,low polyreactivity
15,QDQLVETGGGLVQAGGSLRLSCSASGSIFAAYTMGWYRQAPGKECELVATISSGGSTYYADSVKGRFTISRDNAKNTVYLQMNSLKPEDTAVYYCAAVAYTYTEYEYWGQGTQVTVSS,low polyreactivity
16,QDQLVQSGGGIVQAGGSLRLSCAASGSTFILYAMGWYRQAPGKESELVAAISTSGGSTYYADSVKGRVTISRDNAKNTVYFHMNSLKPDDTAVYYCIAGLSVTHGTSIPFRKYEYWGQGTQVNVSS,low polyreactivity
17,QDQRVDSGGGLVQAGGSLRLSCTAYGFIFGWYAMGWYRQSPGKASQLVAPISQSVGSTYYADSVKGRFTISRDNAKNTVYLQMNSLKPEDSAVYYCNAVGRGSRSRLSSRAGGGDYWGQGTQVTVSS,high polyreactivity
